Source: article PMC6117920, “Chitinase 3-like 1-CD44 interaction promotes metastasis and epithelial-to-mesenchymal transition through β-catenin/Erk/Akt signaling in gastric cancer” (Journal of Experimental & Clinical Cancer Research : CR, 2018)

Columns and labels:
recombinant human CHI3L1 = target: T1, recombinant human CHI3L1 (human, UniProt P36222 22-383); assay: BLI; Octet K2; CHI3L1 or IL-13Rα2 ECD immobilised on AR2G biosensor by amine coupling; CD44v3 peptide (15.6, 31.1, 62.5, 125, 250 μM) in the mobile phase; 20 mM HEPES, 150 mM NaCl, 0.05% Tween-20, 1 mM MgCl2 (or 5 mM EDTA); pH 7.4 in the results (pH 7.5 in the methods); heterogeneous ligand model; conditions: both partners purified
T1 construct: Chitinase 3-like-1 (CHI3L1, YKL-40), human, recombinant; also called rhCHI3L1; RhCHI3L1; source: bought: R&D Systems (Cat. #2599-CH)

[1] = target: T2, recombinant human IL-13Rα2 ECD (human, UniProt Q14627 27-343); assay: as above; conditions: both partners purified
T2 construct: Interleukin-13 receptor alpha 2, human, extracellular domain; also called rhIL-13Rα2 ECD; Interleukin-13 receptor alpha 2; source: bought: Sino Biological (Cat. #10350-H08H-20)
T2 sequence (looked up): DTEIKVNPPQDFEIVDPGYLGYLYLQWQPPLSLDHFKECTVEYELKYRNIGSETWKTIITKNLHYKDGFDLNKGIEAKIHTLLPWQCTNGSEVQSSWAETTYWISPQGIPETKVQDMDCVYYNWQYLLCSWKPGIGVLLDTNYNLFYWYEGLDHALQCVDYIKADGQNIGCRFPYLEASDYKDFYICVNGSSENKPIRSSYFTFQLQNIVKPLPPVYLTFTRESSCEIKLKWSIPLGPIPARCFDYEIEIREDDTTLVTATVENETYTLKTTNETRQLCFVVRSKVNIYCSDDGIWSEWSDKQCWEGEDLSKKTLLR

T1 sequence (P36222 22-383): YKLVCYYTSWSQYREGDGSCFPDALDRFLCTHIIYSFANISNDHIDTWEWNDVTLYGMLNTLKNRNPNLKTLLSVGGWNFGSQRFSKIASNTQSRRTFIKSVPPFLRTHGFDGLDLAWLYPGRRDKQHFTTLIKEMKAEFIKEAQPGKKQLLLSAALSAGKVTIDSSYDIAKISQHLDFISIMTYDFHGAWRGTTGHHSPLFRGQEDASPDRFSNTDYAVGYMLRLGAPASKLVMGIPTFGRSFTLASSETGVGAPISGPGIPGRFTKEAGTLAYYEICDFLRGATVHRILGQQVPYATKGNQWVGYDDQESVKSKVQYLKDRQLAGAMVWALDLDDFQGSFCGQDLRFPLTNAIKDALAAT

B1: CD44v3 peptide (peptide)
peptide: GWEPNEENEDERDRHLSFSGSGIDDDEDFISSTI
notes: peptide fragment of the v3 domain of CD44; contains the SGSG heparan sulfate assembly motif; also called peptide fragment of CD44v3 domain; source: synthetic peptide (ChinaPeptides Co., Ltd.)
Binder B1 has a Kd (recombinant human CHI3L1) of 443 ± 21.4 µM, a koff (recombinant human CHI3L1) of 0.013 s⁻¹ and a kon (recombinant human CHI3L1) of 29.4 ± 1.39 M⁻¹ s⁻¹. The Kd [1] was 563 ± 15.9 µM, the koff [1] was 0.0162 s⁻¹ and the kon [1] was 28.8 ± 7.66 M⁻¹ s⁻¹.
